Data published in patent publication US20260001914A1, “MACROCYCLIC PEPTIDES TARGETING KRAS” (Merck Sharp & Dohme LLC, priority 2022, published 2026).

Columns and labels:
[1] = molecular target: KRAS-G12D in AsPC-1 cells (UniProt P01116); test: cell-based or functional assay
[2] = molecular target: Biotin-labeled KRAS-G12D protein (UniProt P01116-2 1-169, limits assumed, biotin label (site not stated); loaded with BODIPY-GDP); test: cell-based or functional assay

Substance | AlphaScreen @18 h, EC50 [1] | SOS assay EC50 [2]
cyclo(FLac-NMeS-PyrimAla-Nle-Phe2F-Nle-NMe3Pal-amBCP) (peptide) | > 50800 nM | 375 nM
cyclo(FLac-R-3Pal-Nle-Phe2F-Nle-NMeF-amBCP) (peptide) | 39400 nM | 20.7 nM
cyclo(FLac-R-3Pal-cBuA-TyrOMe-Ahp-NMeF-amBCP) (peptide) | > 50800 nM | 10.8 nM
cyclo(FLac-nMeSMe-3Pal-Nle-Phe2F-Nle-NMe3Pal-amBCP) (peptide) | > 50800 nM | 6410 nM
cyclo(INal-R-Phe4CH2NH2-Nle-Y-Nle-NMeF-daMeC-C1Ac) (peptide) | > 50800 nM | 1460 nM
cyclo(Phe3Me-NMeA-3Pal-Nle-Phe2F-Nle-NMe3Pal-amBCP) (peptide) | 32300 nM | 22.3 nM
cyclo(Phe4F-NMeA-3Pal-Nle-Phe2F-Nle-NMe3Pal-amBCP) (peptide) | 42800 nM | 99.9 nM
cyclo(Phe4Me-NMeA-3Pal-Nle-Phe2F-Nle-NMe3Pal-amBCP) (peptide) | 37200 nM | 91.1 nM
cyclo(TyrOMe-NMeA~3Pal-Nle-Phe2F-Nle-NMe3Pal-amBCP) (peptide) | > 50800 nM | 756 nM
cyclo(Y-NMeA-3Pal-Nle-Phe2F-Nle-NMe3Pal-amBCP) (peptide) | 46400 nM | 440 nM
cyclo(dF-R-Phe4Gn-Nle-TyrOMe-Nle-NMeF-c3amCblc) (peptide) | > 50800 nM | 17.3 nM
